Source: patent US20190359693A1 (Janssen / Centocor, published 2019)

Columns and labels:
[1] = biological target: HA of H9N2 A/Great Cormorant/MP2934/04 (influenza A virus); assay: cell-based or functional assay
[2] = biological target: T1, HA of H7N7 A/Netherlands/219/2003 (influenza A virus, UniProt P36346 19-563); assay: cell-based or functional assay
[3] = biological target: HA of H12N5 A/Env/MPK659/09 (influenza A virus); assay: cell-based or functional assay
[4] = biological target: HA of H1N2 A/Env/HK/MPU3156/05 (influenza A virus); assay: cell-based or functional assay
[5] = biological target: HA of H7N9 A/Shanghai/2/13 (influenza A virus); assay: cell-based or functional assay
[6] = biological target: HA of H1N1 A/Christchurch/16/10 (influenza A virus); assay: cell-based or functional assay
[7] = biological target: HA of H1N1 A/Solomon Islands/3/2006 (IVR 145) (influenza A virus); assay: cell-based or functional assay
[8] = biological target: HA of H5N2 A/Eurasian Wigeon/MPF461/07 (influenza A virus); assay: cell-based or functional assay
[9] = biological target: HA of H6N8 A/Eurasian Wigeon/MPD411/07 (influenza A virus); assay: cell-based or functional assay
[10] = biological target: HA of H6N1 A/Eurasian Wigeon/MPG1884/09 (influenza A virus); assay: cell-based or functional assay
[11] = biological target: HA of H5N1 A/PR8 H5N1 HK97 (influenza A virus); assay: cell-based or functional assay
[12] = biological target: HA of H4N1 A/Northern Pintail/MPB1368/06 (influenza A virus); assay: cell-based or functional assay
[13] = biological target: HA of H3N2 A/Panama/2007/99 (influenza A virus); assay: cell-based or functional assay
[14] = biological target: HA of H8N2 A/Env/MPJ1258/09 (influenza A virus); assay: cell-based or functional assay
[15] = biological target: HA of H7N7 A/Northern Shoveler/MPF518/08 (influenza A virus); assay: cell-based or functional assay
[16] = biological target: HA of H4N6 A/Great Cormorant/MPB1683/06 (influenza A virus); assay: cell-based or functional assay
[17] = biological target: HA of H2N2 A/AnnArbor/23/57 (influenza A virus); assay: cell-based or functional assay
[18] = biological target: HA of H5N1 A/Indonesia/5/05 (influenza A virus); assay: cell-based or functional assay
HA of H7N7 A/PR8 H7N7-NY = HA of H7N7 A/PR8 H7N7-NY (influenza A virus); assay: cell-based or functional assay
[19] = biological target: HA of H14N5 A/Mallard/Astrakhan/263/1982 (influenza A virus); assay: cell-based or functional assay
[20] = biological target: HA of H10N7 A/Chick/Germany/N/49 (influenza A virus); assay: cell-based or functional assay
[21] = biological target: HA of H2N2 A/Guiyang/1/57 (influenza A virus); assay: cell-based or functional assay
[22] = biological target: HA of H7N7 A/Common Teal/MPF139/07 (influenza A virus); assay: cell-based or functional assay
[23] = biological target: HA of H11N9 A/Northern Pintail/MPC2085/07 (influenza A virus); assay: cell-based or functional assay
HA of H1N1 A/WSN/33 = HA of H1N1 A/WSN/33 (influenza A virus, UniProt P03454 18-565); assay: cell-based or functional assay
HA of H3N2 A/Aichi/2/68 = HA of H3N2 A/Aichi/2/68 (influenza A virus, UniProt P03437 17-566); assay: cell-based or functional assay
[24] = biological target: HA of H4 A/WF/HK/MPA892/06 (influenza A virus); assay: cell-based or functional assay
HA of H3N2 A/HK/1/68-MA = HA of H3N2 A/HK/1/68-MA (influenza A virus); assay: cell-based or functional assay
[25] = biological target: HA of H9N2 A/Ck/HK/SSP176/09 (influenza A virus); assay: cell-based or functional assay
[26] = biological target: HA of H10N3 A/Common Teal/MPH11/08 (influenza A virus); assay: cell-based or functional assay
HA of H3N2 A/HK/1174/99 = HA of H3N2 A/HK/1174/99 (influenza A virus); assay: cell-based or functional assay
HA of H3N2 A/Fukui/45/04 = HA of H3N2 A/Fukui/45/04 (influenza A virus); assay: cell-based or functional assay
HA of H7N9 A/Anhui/1/13 = HA of H7N9 A/Anhui/1/13 (influenza A virus); assay: cell-based or functional assay
[27] = biological target: HA of H5N2 A/Eurasian Wigeon/HK/MPF333/07 (influenza A virus); assay: cell-based or functional assay
[28] = biological target: HA of H3N2 A/Johannesburg/33/94 (influenza A virus); assay: cell-based or functional assay
[29] = biological target: HA of H8N4 A/Eurasian Wigeon/MPH571/08 (influenza A virus); assay: cell-based or functional assay
[30] = biological target: HA of H3N2 A/Hiroshima/52/05 (influenza A virus); assay: cell-based or functional assay
[31] = biological target: HA of H10N8 A/Jiangxi/346/2013 (influenza A virus); assay: cell-based or functional assay
[32] = biological target: HA of H2N2 A/Env/HK/MPU3156/05 (influenza A virus); assay: cell-based or functional assay
HA of H3N2 A/HK/1/68 [33] = biological target: T2, HA of H3N2 A/HK/1/68 (influenza A virus, UniProt Q91MA7 17-530); assay: cell-based or functional assay
[34] = biological target: HA of H9N2 A/HK/466419/09 (influenza A virus); assay: cell-based or functional assay
[35] = biological target: HA of H7N9 A/Shanghai/1/13 (influenza A virus); assay: cell-based or functional assay
HA of H1N1 A/HK/54/98 = HA of H1N1 A/HK/54/98 (influenza A virus); assay: cell-based or functional assay
[36] = biological target: HA of H3N2 A/Victoria/210/09 (influenza A virus); assay: cell-based or functional assay
[37] = biological target: HA of H1N1 A/Puerto Rico/8/34-MA (influenza A virus); assay: cell-based or functional assay
[38] = biological target: HA of H6N1 A/Taiwan/2/2013 (influenza A virus); assay: cell-based or functional assay
[39] = biological target: HA of H10N9 A/Northern Shoveler/MPE2531/08 (influenza A virus); assay: cell-based or functional assay
HA of H3N2 A/Perth/16/09 = HA of H3N2 A/Perth/16/09 (influenza A virus); assay: cell-based or functional assay
[40] = biological target: HA of H1N1 A/Mississippi/03/01 274H (influenza A virus); assay: cell-based or functional assay
[41] = biological target: T1, HA of H7N7 A/Netherlands/219/2003; assay: AlphaLISA competition vs CR9114
HA of H3N2 A/HK/1/68 [42] = biological target: T2, HA of H3N2 A/HK/1/68; assay: BLI steady state

B1: SD1036 (VHH)
VHH: EVQLVESGGGLVQAGGSLKLSCAASGRTYAMGWFRQAPGKEREFVAHINALGTRTYYSDSVKGRFTISRDNAKNTEYLEMNNLKPEDTAVYYCTAQGQWRAAPVAVAAEYEFWGQGTQVTVSS
notes: llama sdAb
VNA titer [1]: 677 nM
VNA titer [2]: 28.9 nM
VNA titer [3]: > 1000 nM
VNA titer [4]: > 1000 nM
VNA titer [5]: 33 nM
VNA titer [6]: > 1000 nM
VNA titer [7]: > 1000 nM
VNA titer [8]: > 1000 nM
VNA titer [9]: > 1000 nM
VNA titer [10]: > 1000 nM
VNA titer [11]: > 1000 nM
VNA titer [12]: 80.7 nM
VNA titer [13]: > 1000 nM
VNA titer [14]: > 1000 nM
VNA titer [15]: 44.7 nM
VNA titer [16]: 44.5 nM
VNA titer [17]: > 1000 nM
VNA titer [18]: > 1000 nM
VNA titer (HA of H7N7 A/PR8 H7N7-NY): 8.8 nM
VNA titer [19]: 16.2 nM
VNA titer [20]: 22.2 nM
VNA titer [21]: > 1000 nM
VNA titer [22]: 18.3 nM
VNA titer [23]: > 1000 nM
VNA titer (HA of H1N1 A/WSN/33): > 1000 nM
VNA titer (HA of H3N2 A/Aichi/2/68): 6.5 nM
VNA titer [24]: 40.4 nM
VNA titer (HA of H3N2 A/HK/1/68-MA): 73.2 nM
VNA titer [25]: > 1000 nM
VNA titer [26]: 28.9 nM
VNA titer (HA of H3N2 A/HK/1174/99): > 1000 nM
VNA titer (HA of H3N2 A/Fukui/45/04): > 1000 nM
VNA titer (HA of H7N9 A/Anhui/1/13): 65.9 nM
VNA titer [27]: > 1000 nM
VNA titer [28]: 601 nM
VNA titer [29]: > 1000 nM
VNA titer [30]: > 1000 nM
VNA titer [31]: 83.9 nM
VNA titer [32]: > 1000 nM
VNA titer (HA of H3N2 A/HK/1/68 [33]): 115 nM
VNA titer [34]: > 1000 nM
VNA titer [35]: 101 nM
VNA titer (HA of H1N1 A/HK/54/98): > 1000 nM
VNA titer [36]: 540 nM
VNA titer [37]: > 1000 nM
VNA titer [38]: > 1000 nM
VNA titer [39]: 19.9 nM
VNA titer (HA of H3N2 A/Perth/16/09): 76.4 nM
VNA titer [40]: > 1000 nM
pIC50 [41]: 9.3
Kd (HA of H3N2 A/HK/1/68 [42]): 2 nM
